The text below walks through data of patent publication US20250276077A1 (IMMUNOME, published 2025).

For assay [1], the target named is T1, EphA4 (homologous receptor, screening at Integral Molecular) (human, UniProt P54764 20-986).
T1 construct: whole, on cells
Description: membrane protein screening on cells.

Another assay concerns the target T2, FcGR1 (human, UniProt P12314 16-374).
T2 construct: whole, on cells
Put plainly: flow cytometry, 6,000 human membrane proteins expressed on HEK293 cells. (In flow cytometry, cells or beads pass a laser one at a time.)

The target in assay [2] is T3, mouse EphA2 on mouse tumour cells (mouse, UniProt Q03145 26-977).
T3 construct: whole, on cells
T3 sequence (Q03145 26-977): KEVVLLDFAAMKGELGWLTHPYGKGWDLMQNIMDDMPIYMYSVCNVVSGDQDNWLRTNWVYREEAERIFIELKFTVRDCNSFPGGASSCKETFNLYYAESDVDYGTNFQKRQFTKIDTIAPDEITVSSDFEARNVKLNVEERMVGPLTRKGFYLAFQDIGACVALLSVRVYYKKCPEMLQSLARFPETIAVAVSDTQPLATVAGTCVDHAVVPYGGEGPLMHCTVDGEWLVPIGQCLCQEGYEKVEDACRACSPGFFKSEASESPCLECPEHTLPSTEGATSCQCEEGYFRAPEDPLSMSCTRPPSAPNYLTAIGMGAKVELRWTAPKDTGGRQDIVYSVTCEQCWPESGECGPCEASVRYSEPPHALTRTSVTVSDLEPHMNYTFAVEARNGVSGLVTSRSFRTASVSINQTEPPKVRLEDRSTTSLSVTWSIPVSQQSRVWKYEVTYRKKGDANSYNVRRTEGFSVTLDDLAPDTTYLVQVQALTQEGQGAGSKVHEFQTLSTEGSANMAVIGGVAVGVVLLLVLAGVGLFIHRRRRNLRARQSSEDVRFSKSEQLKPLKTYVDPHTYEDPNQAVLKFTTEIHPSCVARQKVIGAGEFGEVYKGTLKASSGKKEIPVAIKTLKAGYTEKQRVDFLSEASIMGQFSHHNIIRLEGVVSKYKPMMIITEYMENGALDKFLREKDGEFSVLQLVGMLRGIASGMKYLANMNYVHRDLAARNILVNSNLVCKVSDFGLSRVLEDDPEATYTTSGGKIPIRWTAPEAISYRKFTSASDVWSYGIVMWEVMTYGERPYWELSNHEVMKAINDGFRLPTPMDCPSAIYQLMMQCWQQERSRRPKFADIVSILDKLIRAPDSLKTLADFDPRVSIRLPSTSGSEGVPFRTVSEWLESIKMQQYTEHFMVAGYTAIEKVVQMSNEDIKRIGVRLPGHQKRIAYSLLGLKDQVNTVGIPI
Put plainly: flow cytometry, CT26 cells (in vitro). Here is the method: Surface binding of the antibodies to in vitro grown cell lines was assessed by flow cytometry. Tumor cells were detached from their culture plate using Versene and counted. Cells were staining in BSA-containing buffer with primary antibody for 30 minutes at 4° C. with shaking. Following, cells were washed and stained with secondary PE-labeled antibody for 30 minutes at 4° C. with shaking. Before analysis on an Intellicyt iQue3 scanner, cells were counterstained with DAPI. MedFI values from live, single cells was expressed as fold over isotype control.

For assay [3], the target named is T4, EphA4_ECD (aa 23-546), Full ECD, displayed on yeast (human, UniProt P54764 23-546).
T4 construct: also called EphA4 full ECD
T4 sequence (P54764 23-546 limits assumed): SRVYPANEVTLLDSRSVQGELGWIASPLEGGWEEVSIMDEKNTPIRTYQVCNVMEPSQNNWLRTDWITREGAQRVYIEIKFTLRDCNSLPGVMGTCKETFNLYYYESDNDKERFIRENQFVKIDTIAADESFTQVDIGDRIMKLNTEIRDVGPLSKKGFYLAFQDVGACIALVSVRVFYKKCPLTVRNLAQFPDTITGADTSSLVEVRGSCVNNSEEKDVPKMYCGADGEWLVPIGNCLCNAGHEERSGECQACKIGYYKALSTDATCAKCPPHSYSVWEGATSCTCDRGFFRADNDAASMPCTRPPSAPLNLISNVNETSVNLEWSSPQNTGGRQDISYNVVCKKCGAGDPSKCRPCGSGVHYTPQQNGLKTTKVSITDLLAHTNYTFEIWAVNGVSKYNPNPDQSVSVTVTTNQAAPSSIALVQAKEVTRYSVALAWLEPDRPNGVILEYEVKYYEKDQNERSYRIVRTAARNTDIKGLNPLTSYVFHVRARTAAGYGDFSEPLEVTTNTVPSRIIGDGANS
Put plainly: yeast surface display, flow cytometry titration.

Assay [4] addresses T3, mouse EphA2 on mouse tumour cells. Put plainly: cell-based or functional assay.

A value given as a limit tells only on which side of the number the result lay.

T2 sequence (P12314 16-374): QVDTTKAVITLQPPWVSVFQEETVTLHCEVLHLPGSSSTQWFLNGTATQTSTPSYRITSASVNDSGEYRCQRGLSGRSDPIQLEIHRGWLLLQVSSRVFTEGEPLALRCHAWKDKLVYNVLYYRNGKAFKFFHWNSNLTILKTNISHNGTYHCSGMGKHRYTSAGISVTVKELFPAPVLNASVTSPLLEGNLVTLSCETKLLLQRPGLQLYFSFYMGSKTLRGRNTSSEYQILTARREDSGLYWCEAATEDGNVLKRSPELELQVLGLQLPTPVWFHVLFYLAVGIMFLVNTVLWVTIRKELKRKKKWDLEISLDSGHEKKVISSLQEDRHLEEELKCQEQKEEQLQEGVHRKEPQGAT
T1 sequence (P54764 20-986): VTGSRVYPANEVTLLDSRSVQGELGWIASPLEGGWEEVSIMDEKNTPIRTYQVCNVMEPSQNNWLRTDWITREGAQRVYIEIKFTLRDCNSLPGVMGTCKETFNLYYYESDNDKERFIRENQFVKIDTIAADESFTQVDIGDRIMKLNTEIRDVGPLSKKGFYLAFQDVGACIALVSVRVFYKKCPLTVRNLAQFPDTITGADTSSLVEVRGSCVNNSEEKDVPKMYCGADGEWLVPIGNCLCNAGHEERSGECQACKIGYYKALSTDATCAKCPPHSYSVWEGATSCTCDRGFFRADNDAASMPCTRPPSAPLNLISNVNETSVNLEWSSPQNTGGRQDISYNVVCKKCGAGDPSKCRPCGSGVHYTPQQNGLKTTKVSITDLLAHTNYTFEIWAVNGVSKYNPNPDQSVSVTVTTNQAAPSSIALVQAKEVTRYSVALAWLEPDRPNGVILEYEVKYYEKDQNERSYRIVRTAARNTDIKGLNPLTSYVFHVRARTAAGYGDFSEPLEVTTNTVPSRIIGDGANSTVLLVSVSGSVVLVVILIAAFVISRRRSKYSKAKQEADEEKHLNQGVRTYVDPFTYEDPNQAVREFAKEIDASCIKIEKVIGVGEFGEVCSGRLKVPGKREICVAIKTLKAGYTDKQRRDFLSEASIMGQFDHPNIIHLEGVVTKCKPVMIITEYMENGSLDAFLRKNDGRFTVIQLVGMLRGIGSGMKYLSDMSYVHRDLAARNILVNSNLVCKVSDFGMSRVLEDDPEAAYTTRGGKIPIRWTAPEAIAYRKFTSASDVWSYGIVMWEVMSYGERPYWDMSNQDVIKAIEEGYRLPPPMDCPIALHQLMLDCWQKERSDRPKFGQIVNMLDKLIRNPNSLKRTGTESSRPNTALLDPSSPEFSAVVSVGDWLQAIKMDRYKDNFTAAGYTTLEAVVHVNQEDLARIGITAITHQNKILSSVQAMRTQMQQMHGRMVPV

B1: AB-008873 (antibody)
heavy: QVQLQQWGAGLLKPSETLSLTCAVYGGSFSDYYWSWIRQPPGKGLEWIGEVNHRGSINYNNYNPSLKSRVTISVDPSKNQFSLKLTSVTAADTAVYYCAKPLRPHCTNGVCYSGDAFDIWGQGTMVTVASAKTTAPSVYPLAPVCGDTTGSSVTLGCLVKGYFPEPVTLTWNSGSLSSGVHTFPAVLQSDLYTLSSSVTVTSSTWPSQSITCNVAHPASSTKVDKKIEPRGPTIKPCPPCKCPAPNLLGGPSVFIFPPKIKDVLMISLSPIVTCVVVDVSEDDPDVQISWFVNNVEVHTAQTQTHREDYNSTLRVVSALPIQHQDWMSGKEFKCKVNNKDLPAPIERTISKPKGSVRAPQVYVLPPPEEEMTKKQVTLTCMVTDFMPEDIYVEWTNNGKTELNYKNTEPVLDSDGSYFMYSKLRVEKKNWVERNSYSCSVVHEGLHNHHTTKSFSRTPG
light: SYVLTQPPSVSVAPGQTARITCGGNNIGSKNVHWYQQKPGQAPVLVVYDDSDRPSGIPEQFSGSNSGNTATLTISRVEAGDEADYYCQVWDSSSDHLVFGGGTKLTVLGQPKSSPSVTLFPPSSEELETNKATLVCTITDFYPGVVTVDWKVDGTPVTQGMETTQPSKQSNNKYMASSYLTLTARAWERHSSYSCQVTHEGHTVEKSLSRADCS
Consider B1, for which the binding result in assay [1] is reported as “no binding”; in the assay with FcGR1, “binds”; in assay [3] it was “no binding (tested: about 300 nM)”. Besides, in assay [2], the “fold (MedFI over isotype control)” value was 16 fold. The “ADCC EC50 (nM), EMT6 cells” value in assay [4] was > 100 nM.
